Assays:
[1] = molecular target: SF370 bacterial surface (Streptococcus pyogenes strain SF370 (emm1 serotype)); experiment: binding to SF370 bacteria, fitted binding curve; unit printed nM-1; ±261; non-specific control IgG (Fc binding)
[2] = molecular target: T1, M1 protein on the surface of Streptococcus pyogenes strain SF370 (Streptococcus pyogenes strain SF370 …); experiment: binding to SF370 bacteria, fitted binding curve; unit printed nM-1; ±2.9; F(ab')2
T1 chain: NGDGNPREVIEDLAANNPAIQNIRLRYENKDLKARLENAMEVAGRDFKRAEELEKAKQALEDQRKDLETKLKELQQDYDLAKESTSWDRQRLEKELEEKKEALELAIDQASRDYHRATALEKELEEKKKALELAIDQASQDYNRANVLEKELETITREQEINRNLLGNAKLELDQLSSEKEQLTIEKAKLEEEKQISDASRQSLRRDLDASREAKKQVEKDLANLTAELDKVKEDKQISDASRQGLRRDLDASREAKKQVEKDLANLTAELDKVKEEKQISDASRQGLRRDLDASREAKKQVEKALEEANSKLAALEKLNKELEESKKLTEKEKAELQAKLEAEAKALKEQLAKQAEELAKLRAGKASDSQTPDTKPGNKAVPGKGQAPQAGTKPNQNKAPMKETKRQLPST

[3] = molecular target: T1, M1 protein on the surface of …; experiment: binding to SF370 bacteria, fitted binding curve; unit printed nM-1; ±30.3; Fab
[4] = molecular target: T1, M1 protein on the surface of …; experiment: binding to SF370 bacteria, fitted binding curve; unit printed nM-1; ±1.2; F(ab')2
[5] = molecular target: T1, M1 protein on the surface of …; experiment: as above

## Xolair IgG
[1]
  Kd: 3170 nM

B1: Ab32 F(ab')2 fragments (IdeS-cleaved Ab32) (antibody, V domains shown)
VH: EVQLVESGGGLVRPGGSLRLSCVASGFMFNEYYMSWIRQAPGKGLEWISFISNAGTYTNYAESVKGRFTISRDNAKDSLYLEMNSLRGEDTAVYYCARQGFDTRGEDAFEIWGQGTMVTVSS
VL: EIVLTQSPATLSLSPGERATLSCRASQPLSGYLAWYQQKPGQAPRLLIYNASKRATGIPARFTGSGSGTDFTLTISSLESEDFAVYYCQQRSGWPSIFTFGPGTKVDIKR
[2]
  Kd: 9.1 nM

B2: Ab49 single Fabs (IgdE-cleaved Ab49) (Fab, V domains shown)
VH: EVQLVESGGGLVQPGGSLRLSCAASGFTVSINYMSWVRQAPGKGLQWVSVIYSGGSTYYADSVKGRFTISRDNSKNTLYLQMNSLRAEDTAMYYCVRDSRFWGIFDYWGQGTLVTVSS
VL: EIVLTQSPATLSLSPGERATLSCRASQSVSSYLAWYQRKPGQAPRLLIYDASNRATGIPARFSGSGSGTDFTLTISSLEPEDFAVYYCQQRSNWPPTFGQGTKVEIKR
[3]
  Kd: 208 nM

B3: Ab49 F(ab')2 fragments (IdeS-cleaved Ab49) (antibody, V domains shown)
VH: B2 VH
VL: B2 VL
[4]
  Kd: 12.3 nM
[5]
  Kd: 12.3 nM

Source: patent publication US20240010712A1 (published 2024)
